Data taken from patent US20100041096.

Experiments:
[1] = molecular target: endogenous NPM of 293T cells, P06748
[2] = molecular target: His-Flag-NPM (full length, recombinant, from E. coli), P06748
Sequence of His-Flag-NPM (full length, recombinant, from E. coli), P06748 (P06748 whole entry): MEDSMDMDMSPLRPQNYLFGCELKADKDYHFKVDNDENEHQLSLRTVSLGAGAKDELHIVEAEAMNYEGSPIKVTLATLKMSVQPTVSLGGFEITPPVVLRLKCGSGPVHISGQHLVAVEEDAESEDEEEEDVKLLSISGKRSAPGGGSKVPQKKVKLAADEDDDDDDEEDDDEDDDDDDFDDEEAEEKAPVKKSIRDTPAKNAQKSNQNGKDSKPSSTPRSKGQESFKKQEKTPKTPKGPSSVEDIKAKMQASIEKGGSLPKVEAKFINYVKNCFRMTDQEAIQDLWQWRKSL

Sequence of endogenous NPM of 293T cells, P06748 (P06748 whole entry): as above

Protein | LC/MS/MS identification of proteins conjugated with Flag-ubiquitin in the reaction of the ligase immunocomplex [1] | in vitro ubiquitination with purified recombinant proteins (anti-Flag immunoblot) [2]
Myc-BRCA1(1-772)/BARD1 complex (protein) chain 1: MDLSALRVEEVQNVINAMQKILECPICLELIKEPVSTKCDHIFCKFCMLKLLNQKKGPSQCPLCKNDITKRSLQESTRFSQLVEELLKIICAFQLDTGLEYANSYNFAKKENNSPEHLKDEVSIIQSMGYRNRAKRLLQSEPENPSLQETSLSVQLSNLGTVRTLRTKQRIQPQKTSVYIELGSDSSEDTVNKATYCSVGDQELLQITPQGTRDEISLDSAKKAACEFSETDVTNTEHHQPSNNDLNTTEKRAAERHPEKYQGSSVSNLHVEPCGTNTHASSLQHENSSLLLTKDRMNVEKAEFCNKSKQPGLARSQHNRWAGSKETCNDRRTPSTEKKVDLNADPLCERKEWNKQKLPCSENPRDTEDVPWITLNSSIQKVNEWFSRSDELLGSDDSHDGESESNAKVADVLDVLNEVDEYSGSSEKIDLLASDPHEALICKSERVHSKSVESNIEDKIFGKTYRKKASLPNLSHVTENLIIGAFVTEPQIIQERPLTNKLKRKRRPTSGLHPEDFIKKADLAVQKTPEMINQGTNQTEQNGQVMNITNSGHENKTKGDSIQNEKNPNPIESLEKESAFKTKAEPISSSISNMELELNIHNSKAPKKNRLRRKSSTRHIHALELVVSRNLSPPNCTELQIDSCSSSEEIKKKKYNQMPVRHSRNLQLMEGKEPATGAKKSNKPNEQTSKRHDSDTFPELKLTNAPGSFTKCSNTSELKEFVNPSLPREEKEEKLETVKVSNNAEDPKDLMLSGERVLQTERSVESSSISLV chain 2: MPDNRQPRNRQPRIRSGNEPRSAPAMEPDGRGAWAHSRAALDRLEKLLRCSRCTNILREPVCLGGCEHIFCSNCVSDCIGTGCPVCYTPAWIQDLKINRQLDSMIQLCSKLRNLLHDNELSDLKEDKPRKSLFNDAGNKKNSIKMWFSPRSKKVRYVVSKASVQTQPAIKKDASAQQDSYEFVSPSPPADVSERAKKASARSGKKQKKKTLAEINQKWNLEAEKEDGEFDSKEESKQKLVSFCSQPSVISSPQINGEIDLLASGSLTESECFGSLTEVSLPLAEQIESPDTKSRNEVVTPEKVCKNYLTSKKSLPLENNGKRGHHNRLSSPISKRCRTSILSTSGDFVKQTVPSENIPLPECSSPPSCKRKVGGTSGRKNSNMSDEFISLSPGTPPSTLSSSSYRRVMSSPSAMKLLPNMAVKRNHRGETLLHIASIKGDIPSVEYLLQNGSDPNVKDHAGWTPLHEACNHGHLKVVELLLQHKALVNTTGYQNDSPLHDAAKNGHVDIVKLLLSYGASRNAVNIFGLRPVDYTDDESMKSLLLLPEKNESSSASHCSVMNTGQRRDGPLVLIGSGLSSEQQKMLSELAVILKAKKYTEFDSTVTHVVVPGDAVQSTLKCMLGILNGCWILKFEWVKACLRRKVCEQEEKYEIPEGPRRSRLNREQLLPKLFDGCYFYLWGTFKHHPKDNLIKLVTAGGGQILSRKPKPDSDVTQTINTVAYHARPDSDQRFCTQYIIYEDLCNYHPERVRQGKVWKAPSSWFIDCVMSFELLPLDS | Of the proteins identified, nucleophosmin/B23 (NPM) exhibited the highest possibility with 17 peptides displaying a probability based Mowse score of 126 | –
His-BRCA1 (1-304) / His-BARD1 (14-189) (protein) chain 1: MDLSALRVEEVQNVINAMQKILECPICLELIKEPVSTKCDHIFCKFCMLKLLNQKKGPSQCPLCKNDITKRSLQESTRFSQLVEELLKIICAFQLDTGLEYANSYNFAKKENNSPEHLKDEVSIIQSMGYRNRAKRLLQSEPENPSLQETSLSVQLSNLGTVRTLRTKQRIQPQKTSVYIELGSDSSEDTVNKATYCSVGDQELLQITPQGTRDEISLDSAKKAACEFSETDVTNTEHHQPSNNDLNTTEKRAAERHPEKYQGSSVSNLHVEPCGTNTHASSLQHENSSLLLTKDRMNVEKAEF chain 2: IRSGNEPRSAPAMEPDGRGAWAHSRAALDRLEKLLRCSRCTNILREPVCLGGCEHIFCSNCVSDCIGTGCPVCYTPAWIQDLKINRQLDSMIQLCSKLRNLLHDNELSDLKEDKPRKSLFNDAGNKKNSIKMWFSPRSKKVRYVVSKASVQTQPAIKKDASAQQDSYEFVSPSPPA | – | two slowly floating products were detected in the gel (lane 7)
